According to patent USRE39192E1, “Supplemented and unsupplemented tissue sealants, methods of their production and use” (American National Red Cross, priority 1990, dated 2006):

Target: T1, thrombin (Homo sapiens, UniProt P00734)
T1 construct: converts prothrombin into thrombin
Assay: Stability of HBGF-1β to thrombin in the presence of heparin (Western blot)
Type: biochemical
Details: heparin as low as 5U/ml; thrombin 250 U/ml; 37° C.
Experimental: FIGS. 1A-1F show Western blots of gels on which samples containing HBGF-1β had been incubated with 250 U/ml thrombin in the presence of increasing concentrations of heparin. Solutions containing HBGF-1β (10 μg/ml), thrombin ([…]), and increasing concentrations of heparin (0, 0.5, 5, 10, 20, and 50 units/ml) were incubated at 37° C. for 72 hours. Aliquots were periodically removed from each of the incubating mixtures and were loaded onto 8% SDS polyacrylamide gels that were prepared and run as described by Laemmli (Nature 227:680 (1970)). The gel was then electroblotted onto nitrocellulose and the band corresponding to HBGF-1β was identified using an affinity-purified polyclonal rabbit antiserum to HBGF-1β.
The concentrations of heparin in the incubating mixtures were: panel A) 0 units/ml; panel B) 0.5 U/ml; Panel C) 5 U/ml; panel D) 10 U/ml; panel E) 20 U/ml; and panel F) 50 U/ml. […]
Similarly, the ability of a selected inhibitor to protect a growth factor from degradation by TS components may be assessed by any method known to those of skill in the art. […]
It was necessary to add an ingredient to the FG that would inhibit or prevent the digestion of HBGF-1β by thrombin (Lobb, Biochem. 27:2572-2578 (1988)), which is a component of FG. […] The stability of HBGF-1 in the presence of increasing concentrations of heparin was assessed. […]

Substance: HBGF-1: heparin binding growth factor-1, also known as ECGF and FGF-1; recombinant HBGF-1β expressed in E. coli
- protection of HBGF-1β from digestion by thrombin: protected from digestion by thrombin
